Data taken from paper PMC11447106 (Clinical and Translational Medicine, 2024).

Legend:
[1] = H2O2-induced nuclear translocation, fractionation; details: glycan lost; control: NCI-H1299 NRF2-WT cells + H2O2
cisplatin IC50 in cells = details: glycan lost; control: NCI-H1299 NRF2-WT cells
[2] = NRF2 level in xenografts, IHC and WB; details: glycan lost; control: NCI-H1299 NRF2-WT xenografts
[3] = CHX chase, Flag-NRF2 remaining; NCI-H1299, HEK293T; details: glycan lost; control: Flag-NRF2WT
[4] = RT-PCR of NRF2 target genes in xenografts; details: glycan lost; control: NCI-H1299 NRF2-WT xenografts
[5] = xenograft growth under cisplatin 1.5 or 3.0 mg/kg; details: glycan lost; control: NCI-H1299 NRF2-WT xenografts + cisplatin
[6] = endogenous NRF2 stability by WB, knock-in cells; details: glycan lost; control: NCI-H1299 NRF2-WT cells
[7] = H2O2-induced ARE luciferase activity; details: glycan lost; control: NCI-H1299 NRF2-WT cells + H2O2
[8] = WB of NRF2 after OGT KD or overexpression; details: glycan lost; control: control NCI-H1299 cells

B1: NRF2: S103A (protein)
parent chain: MMDLELPPPGLPSQQDMDLIDILWRQDIDLGVSREVFDFSQRRKEYELEKQKKLEKERQEQLQKEQEKAFFAQLQLDEETGEFLPIQPAQHIQSETSGSANYSQVAHIPKSDALYFDDCMQLLAQTFPFVDDNEVSSATFQSLVPDIPGHIESPVFIATNQAQSPETSVAQVAPVDLDGMQQDIEQVWEELLSIPELQCLNIENDKLVETTMVPSPEAKLTEVDNYHFYSSIPSMEKEVGNCSPHFLNAFEDSFSSILSTEDPNQLTVNSLNSDATVNTDFGDEFYSAFIAEPSISNSMPSPATLSHSLSELLNGPIDVSDLSLCKAFNQNHPESTAEFNDSDSGISLNTSPSVASPEHSVESSSYGDTLLGLSDSEVEELDSAPGSVKQNGPKTPVHSSGDMVQPLSPSQGQSTHVHDAQCENTPEKELPVSPGHRKTPFTKDKHSSRLEAHLTRDELRAKALHIPFPVEKIINLPVVDFNEMMSKEQFNEAQLALIRDIRRRGKNKVAAQNCRKRKLENIVELEQDLDHLKDEKEKLLKEKGENDKSLHLLKKQLSTLYLEVFSMLRDEDGKPYSPSEYSLQQTRDGNVFLVPKSKKPDVKKN
Question: For B1, which localisation_or_trafficking [1] is on record?
Answer: The localisation_or_trafficking was “decreases”.

Question: What about the “other: cisplatin resistance, IC50” value (cisplatin IC50 in cells) of the same protein?
Answer: The value was “decreases, 19.53 vs 31.83”.

Question: And the expression_or_secretion [2]?
Answer: The expression_or_secretion was “decreases”.

Question: And the degradation_or_half_life [3]?
Answer: Its degradation_or_half_life is “decreases”.

Question: And the “other: transcriptional activity” value [4]?
Answer: The value was “decreases”.

Question: What about the “other: cisplatin resistance” value [5] of the same protein?
Answer: Its value is “decreases”.

Question: What about the degradation_or_half_life [6] of the same protein?
Answer: Its degradation_or_half_life is “decreases”.

Question: What about the “other: transcriptional activity” value [7] of the same protein?
Answer: The value was “decreases”.

B2: NRF2: S111A (protein)
parent chain: MMDLELPPPGLPSQQDMDLIDILWRQDIDLGVSREVFDFSQRRKEYELEKQKKLEKERQEQLQKEQEKAFFAQLQLDEETGEFLPIQPAQHIQSETSGSANYSQVAHIPKSDALYFDDCMQLLAQTFPFVDDNEVSSATFQSLVPDIPGHIESPVFIATNQAQSPETSVAQVAPVDLDGMQQDIEQVWEELLSIPELQCLNIENDKLVETTMVPSPEAKLTEVDNYHFYSSIPSMEKEVGNCSPHFLNAFEDSFSSILSTEDPNQLTVNSLNSDATVNTDFGDEFYSAFIAEPSISNSMPSPATLSHSLSELLNGPIDVSDLSLCKAFNQNHPESTAEFNDSDSGISLNTSPSVASPEHSVESSSYGDTLLGLSDSEVEELDSAPGSVKQNGPKTPVHSSGDMVQPLSPSQGQSTHVHDAQCENTPEKELPVSPGHRKTPFTKDKHSSRLEAHLTRDELRAKALHIPFPVEKIINLPVVDFNEMMSKEQFNEAQLALIRDIRRRGKNKVAAQNCRKRKLENIVELEQDLDHLKDEKEKLLKEKGENDKSLHLLKKQLSTLYLEVFSMLRDEDGKPYSPSEYSLQQTRDGNVFLVPKSKKPDVKKN
Question: Which degradation_or_half_life [3] does the source give for B2 here?
Answer: Its degradation_or_half_life is “no change”.

B3: NRF2: S310A (protein)
parent chain: MMDLELPPPGLPSQQDMDLIDILWRQDIDLGVSREVFDFSQRRKEYELEKQKKLEKERQEQLQKEQEKAFFAQLQLDEETGEFLPIQPAQHIQSETSGSANYSQVAHIPKSDALYFDDCMQLLAQTFPFVDDNEVSSATFQSLVPDIPGHIESPVFIATNQAQSPETSVAQVAPVDLDGMQQDIEQVWEELLSIPELQCLNIENDKLVETTMVPSPEAKLTEVDNYHFYSSIPSMEKEVGNCSPHFLNAFEDSFSSILSTEDPNQLTVNSLNSDATVNTDFGDEFYSAFIAEPSISNSMPSPATLSHSLSELLNGPIDVSDLSLCKAFNQNHPESTAEFNDSDSGISLNTSPSVASPEHSVESSSYGDTLLGLSDSEVEELDSAPGSVKQNGPKTPVHSSGDMVQPLSPSQGQSTHVHDAQCENTPEKELPVSPGHRKTPFTKDKHSSRLEAHLTRDELRAKALHIPFPVEKIINLPVVDFNEMMSKEQFNEAQLALIRDIRRRGKNKVAAQNCRKRKLENIVELEQDLDHLKDEKEKLLKEKGENDKSLHLLKKQLSTLYLEVFSMLRDEDGKPYSPSEYSLQQTRDGNVFLVPKSKKPDVKKN
Question: For B3, which degradation_or_half_life [3] is on record?
Answer: Its degradation_or_half_life is “no change”.

B4: NRF2: T350A (protein)
parent chain: MMDLELPPPGLPSQQDMDLIDILWRQDIDLGVSREVFDFSQRRKEYELEKQKKLEKERQEQLQKEQEKAFFAQLQLDEETGEFLPIQPAQHIQSETSGSANYSQVAHIPKSDALYFDDCMQLLAQTFPFVDDNEVSSATFQSLVPDIPGHIESPVFIATNQAQSPETSVAQVAPVDLDGMQQDIEQVWEELLSIPELQCLNIENDKLVETTMVPSPEAKLTEVDNYHFYSSIPSMEKEVGNCSPHFLNAFEDSFSSILSTEDPNQLTVNSLNSDATVNTDFGDEFYSAFIAEPSISNSMPSPATLSHSLSELLNGPIDVSDLSLCKAFNQNHPESTAEFNDSDSGISLNTSPSVASPEHSVESSSYGDTLLGLSDSEVEELDSAPGSVKQNGPKTPVHSSGDMVQPLSPSQGQSTHVHDAQCENTPEKELPVSPGHRKTPFTKDKHSSRLEAHLTRDELRAKALHIPFPVEKIINLPVVDFNEMMSKEQFNEAQLALIRDIRRRGKNKVAAQNCRKRKLENIVELEQDLDHLKDEKEKLLKEKGENDKSLHLLKKQLSTLYLEVFSMLRDEDGKPYSPSEYSLQQTRDGNVFLVPKSKKPDVKKN
Question: For B4, which degradation_or_half_life [3] is on record?
Answer: The degradation_or_half_life was “no change”.

B5: NRF2: OGT knockdown (protein)
parent chain: MMDLELPPPGLPSQQDMDLIDILWRQDIDLGVSREVFDFSQRRKEYELEKQKKLEKERQEQLQKEQEKAFFAQLQLDEETGEFLPIQPAQHIQSETSGSANYSQVAHIPKSDALYFDDCMQLLAQTFPFVDDNEVSSATFQSLVPDIPGHIESPVFIATNQAQSPETSVAQVAPVDLDGMQQDIEQVWEELLSIPELQCLNIENDKLVETTMVPSPEAKLTEVDNYHFYSSIPSMEKEVGNCSPHFLNAFEDSFSSILSTEDPNQLTVNSLNSDATVNTDFGDEFYSAFIAEPSISNSMPSPATLSHSLSELLNGPIDVSDLSLCKAFNQNHPESTAEFNDSDSGISLNTSPSVASPEHSVESSSYGDTLLGLSDSEVEELDSAPGSVKQNGPKTPVHSSGDMVQPLSPSQGQSTHVHDAQCENTPEKELPVSPGHRKTPFTKDKHSSRLEAHLTRDELRAKALHIPFPVEKIINLPVVDFNEMMSKEQFNEAQLALIRDIRRRGKNKVAAQNCRKRKLENIVELEQDLDHLKDEKEKLLKEKGENDKSLHLLKKQLSTLYLEVFSMLRDEDGKPYSPSEYSLQQTRDGNVFLVPKSKKPDVKKN
Question: Which expression_or_secretion [8] does the source give for B5 here?
Answer: The expression_or_secretion was “decreases”.
